One molecule from publication PMC8826850 (2022) can be followed below.

The test deals with SARS-CoV-2 HexaPro spike protein, wild type (SARS-CoV-2 wild type (GenBank …, UniProt A0A679G9E9, F817 to proline | A892 to proline | A899 to proline | A942 to proline | K986 to …)). In words: BLI. The conditions noted are these: both partners purified.

B1: S2-E12 (antibody, V domains shown)
VH: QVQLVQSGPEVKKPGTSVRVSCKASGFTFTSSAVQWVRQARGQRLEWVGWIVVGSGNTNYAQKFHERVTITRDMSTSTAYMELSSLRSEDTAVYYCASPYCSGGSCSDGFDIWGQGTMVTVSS
VL: DIVLTQTPGTLSLSPGERATLSCRASQSVSSSYLAWYQQKPGQAPRLLIYGASSRATGIPDRFSGSGSGTDFTLTISRLEPEDFAVYYCQQYVGLTGWTFGQGTKVEIK
For the molecule B1, the binding result is “binds”.
